Results: patent US10087225B2, “Formulation of MK2 inhibitor peptides” (MOERAE MATRIX, INC., priority 2015, dated 2018)

Tests used:
Experiment in all cases: Kinase Profiling Assay
Assay type in all cases: biochemical
TSSK2(h) = target: T1, TSSK2(h) (Homo sapiens, UniProt Q96PF2); conditions: 100 μM
T1 sequence (Q96PF2 1-358): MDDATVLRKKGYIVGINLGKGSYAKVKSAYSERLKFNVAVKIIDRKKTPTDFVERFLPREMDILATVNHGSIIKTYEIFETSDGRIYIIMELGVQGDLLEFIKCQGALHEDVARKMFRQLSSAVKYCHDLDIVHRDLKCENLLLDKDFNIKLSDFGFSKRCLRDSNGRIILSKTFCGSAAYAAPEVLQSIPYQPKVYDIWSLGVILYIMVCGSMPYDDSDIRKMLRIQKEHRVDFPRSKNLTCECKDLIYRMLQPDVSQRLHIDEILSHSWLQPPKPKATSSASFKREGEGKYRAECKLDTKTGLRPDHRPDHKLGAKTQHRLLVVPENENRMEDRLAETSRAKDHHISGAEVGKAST

MSK2(h) = MSK2(h) (Homo sapiens, UniProt O75676); conditions: 100 μM
MSK2(h), sequence (O75676 whole entry): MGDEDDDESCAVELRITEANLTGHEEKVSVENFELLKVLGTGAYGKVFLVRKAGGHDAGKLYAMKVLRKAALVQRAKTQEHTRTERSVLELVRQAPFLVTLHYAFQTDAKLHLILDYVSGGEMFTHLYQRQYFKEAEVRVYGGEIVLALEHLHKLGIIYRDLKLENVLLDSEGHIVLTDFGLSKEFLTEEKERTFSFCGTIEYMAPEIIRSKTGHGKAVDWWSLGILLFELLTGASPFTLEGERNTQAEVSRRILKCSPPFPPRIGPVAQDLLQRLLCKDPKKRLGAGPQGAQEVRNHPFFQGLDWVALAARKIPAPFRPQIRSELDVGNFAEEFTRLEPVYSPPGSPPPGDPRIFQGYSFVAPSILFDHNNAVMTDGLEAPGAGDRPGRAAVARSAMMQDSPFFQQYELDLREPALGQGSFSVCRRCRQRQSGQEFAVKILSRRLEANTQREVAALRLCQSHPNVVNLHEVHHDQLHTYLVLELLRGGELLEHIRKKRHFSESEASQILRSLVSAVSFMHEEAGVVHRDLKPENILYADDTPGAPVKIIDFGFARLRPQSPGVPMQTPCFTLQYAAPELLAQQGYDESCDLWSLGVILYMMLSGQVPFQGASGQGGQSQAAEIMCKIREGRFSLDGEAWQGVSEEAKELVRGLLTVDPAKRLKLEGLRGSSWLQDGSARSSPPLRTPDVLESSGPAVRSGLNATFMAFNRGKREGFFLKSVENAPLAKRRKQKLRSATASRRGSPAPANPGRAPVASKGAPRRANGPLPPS

PKA(h) = PKA(h) (Homo sapiens, UniProt P17612); conditions: 100 μM
Rse(h) = target: T2, Rse(h) (Homo sapiens, UniProt Q06418); conditions: 100 μM
T2 sequence (Q06418 41-890): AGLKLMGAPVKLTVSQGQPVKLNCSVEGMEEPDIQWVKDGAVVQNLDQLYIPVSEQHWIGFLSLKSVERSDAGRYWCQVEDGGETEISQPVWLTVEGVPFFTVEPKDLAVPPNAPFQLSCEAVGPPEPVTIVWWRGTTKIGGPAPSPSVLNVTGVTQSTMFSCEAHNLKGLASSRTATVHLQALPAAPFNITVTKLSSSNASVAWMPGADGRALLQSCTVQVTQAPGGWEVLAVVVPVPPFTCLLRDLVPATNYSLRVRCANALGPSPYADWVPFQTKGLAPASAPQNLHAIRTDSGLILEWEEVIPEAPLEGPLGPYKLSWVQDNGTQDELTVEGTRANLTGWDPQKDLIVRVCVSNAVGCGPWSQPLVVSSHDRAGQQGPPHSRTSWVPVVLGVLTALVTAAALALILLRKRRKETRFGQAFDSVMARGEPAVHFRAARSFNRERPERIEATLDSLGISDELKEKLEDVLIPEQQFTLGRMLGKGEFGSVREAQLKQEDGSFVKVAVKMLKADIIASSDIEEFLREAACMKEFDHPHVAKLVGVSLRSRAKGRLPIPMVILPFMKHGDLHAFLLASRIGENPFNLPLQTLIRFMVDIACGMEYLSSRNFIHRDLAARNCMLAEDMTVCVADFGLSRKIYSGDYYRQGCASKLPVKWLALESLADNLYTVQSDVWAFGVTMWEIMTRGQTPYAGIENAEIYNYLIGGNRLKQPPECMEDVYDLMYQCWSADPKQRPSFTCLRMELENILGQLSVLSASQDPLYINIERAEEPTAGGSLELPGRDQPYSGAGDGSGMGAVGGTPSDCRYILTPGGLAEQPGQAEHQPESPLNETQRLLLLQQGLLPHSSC

CaMKIV(h) = target: T3, CaMKIV(h) (Homo sapiens, UniProt Q16566); conditions: 100 μM
T3 sequence (Q16566 1-473): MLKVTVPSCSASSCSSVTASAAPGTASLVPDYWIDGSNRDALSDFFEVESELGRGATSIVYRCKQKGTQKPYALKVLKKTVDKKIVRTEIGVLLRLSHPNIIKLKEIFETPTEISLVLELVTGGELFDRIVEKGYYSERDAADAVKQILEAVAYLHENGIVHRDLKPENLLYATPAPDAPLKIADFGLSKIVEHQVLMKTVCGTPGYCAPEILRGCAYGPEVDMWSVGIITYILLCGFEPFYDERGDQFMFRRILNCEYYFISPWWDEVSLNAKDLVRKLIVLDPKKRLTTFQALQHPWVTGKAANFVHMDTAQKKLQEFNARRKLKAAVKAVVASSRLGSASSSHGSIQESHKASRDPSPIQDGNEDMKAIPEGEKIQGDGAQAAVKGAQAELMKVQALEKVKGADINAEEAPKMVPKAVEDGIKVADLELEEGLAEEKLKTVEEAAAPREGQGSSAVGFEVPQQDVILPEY

PKCγ(h) = PKCγ(h) (Homo sapiens, UniProt P05129); conditions: 100 μM
JNK3(h) = JNK3(h) (Homo sapiens, UniProt P53779); conditions: 100 μM
JNK3(h), sequence (P53779 whole entry): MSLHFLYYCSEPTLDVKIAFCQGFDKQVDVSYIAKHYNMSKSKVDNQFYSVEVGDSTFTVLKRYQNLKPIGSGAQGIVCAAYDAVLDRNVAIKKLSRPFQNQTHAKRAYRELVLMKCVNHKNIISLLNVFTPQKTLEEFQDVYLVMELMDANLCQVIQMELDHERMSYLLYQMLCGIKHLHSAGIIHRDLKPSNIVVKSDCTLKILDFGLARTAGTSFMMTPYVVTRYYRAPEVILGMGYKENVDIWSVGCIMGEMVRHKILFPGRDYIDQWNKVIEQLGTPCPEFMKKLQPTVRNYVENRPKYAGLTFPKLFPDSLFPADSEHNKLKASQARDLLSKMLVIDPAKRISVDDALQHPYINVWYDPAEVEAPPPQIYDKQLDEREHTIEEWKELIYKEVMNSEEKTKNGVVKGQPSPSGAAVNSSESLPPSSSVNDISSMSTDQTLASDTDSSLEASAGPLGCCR

NEK2(h) = target: T4, NEK2(h) (Homo sapiens, UniProt P51955); conditions: 100 μM
T4 sequence (P51955 1-445): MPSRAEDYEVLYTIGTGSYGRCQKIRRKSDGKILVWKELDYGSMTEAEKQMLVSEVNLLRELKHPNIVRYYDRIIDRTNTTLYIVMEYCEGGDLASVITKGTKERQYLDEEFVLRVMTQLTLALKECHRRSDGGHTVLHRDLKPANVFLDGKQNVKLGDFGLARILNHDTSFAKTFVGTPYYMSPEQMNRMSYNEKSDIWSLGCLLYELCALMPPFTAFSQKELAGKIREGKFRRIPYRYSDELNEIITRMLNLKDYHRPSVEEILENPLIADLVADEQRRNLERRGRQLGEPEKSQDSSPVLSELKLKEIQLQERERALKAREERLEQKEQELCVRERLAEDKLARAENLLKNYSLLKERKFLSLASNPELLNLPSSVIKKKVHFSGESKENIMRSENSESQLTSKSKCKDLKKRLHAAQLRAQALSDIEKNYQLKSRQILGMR

ACK1(h) = ACK1(h) (Homo sapiens, UniProt Q07912); conditions: 100 μM
ACK1(h), sequence (Q07912 whole entry): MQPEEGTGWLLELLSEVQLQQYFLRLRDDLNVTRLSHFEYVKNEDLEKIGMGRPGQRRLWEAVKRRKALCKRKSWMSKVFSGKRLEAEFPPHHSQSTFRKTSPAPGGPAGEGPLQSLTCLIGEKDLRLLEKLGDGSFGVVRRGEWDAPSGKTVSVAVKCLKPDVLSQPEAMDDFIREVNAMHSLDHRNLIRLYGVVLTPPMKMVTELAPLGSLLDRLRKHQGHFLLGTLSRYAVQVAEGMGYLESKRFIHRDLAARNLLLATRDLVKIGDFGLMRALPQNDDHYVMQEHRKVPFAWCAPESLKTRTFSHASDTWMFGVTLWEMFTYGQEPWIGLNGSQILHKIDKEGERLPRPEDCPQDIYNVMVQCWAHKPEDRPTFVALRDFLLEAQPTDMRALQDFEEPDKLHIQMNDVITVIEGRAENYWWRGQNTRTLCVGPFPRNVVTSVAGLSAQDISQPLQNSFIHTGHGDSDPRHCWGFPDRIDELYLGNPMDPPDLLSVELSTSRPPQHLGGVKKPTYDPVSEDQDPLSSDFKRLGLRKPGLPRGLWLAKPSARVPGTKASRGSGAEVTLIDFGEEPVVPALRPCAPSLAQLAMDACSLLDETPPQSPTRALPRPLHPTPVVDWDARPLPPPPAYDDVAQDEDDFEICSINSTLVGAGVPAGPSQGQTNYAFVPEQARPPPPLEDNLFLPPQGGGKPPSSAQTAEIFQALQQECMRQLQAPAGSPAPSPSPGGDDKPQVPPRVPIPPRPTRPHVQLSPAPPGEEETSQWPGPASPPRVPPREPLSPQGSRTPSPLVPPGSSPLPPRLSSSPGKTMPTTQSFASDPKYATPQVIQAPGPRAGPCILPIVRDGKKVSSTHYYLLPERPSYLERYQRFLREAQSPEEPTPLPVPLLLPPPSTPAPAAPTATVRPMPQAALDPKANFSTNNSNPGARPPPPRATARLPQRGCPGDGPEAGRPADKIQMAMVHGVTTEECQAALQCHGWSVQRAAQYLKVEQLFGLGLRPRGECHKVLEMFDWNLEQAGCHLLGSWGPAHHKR

MRCKα(h) = MRCKα(h) (Homo sapiens, UniProt Q5VT25)
MRCKα(h), sequence (Q5VT25 whole entry): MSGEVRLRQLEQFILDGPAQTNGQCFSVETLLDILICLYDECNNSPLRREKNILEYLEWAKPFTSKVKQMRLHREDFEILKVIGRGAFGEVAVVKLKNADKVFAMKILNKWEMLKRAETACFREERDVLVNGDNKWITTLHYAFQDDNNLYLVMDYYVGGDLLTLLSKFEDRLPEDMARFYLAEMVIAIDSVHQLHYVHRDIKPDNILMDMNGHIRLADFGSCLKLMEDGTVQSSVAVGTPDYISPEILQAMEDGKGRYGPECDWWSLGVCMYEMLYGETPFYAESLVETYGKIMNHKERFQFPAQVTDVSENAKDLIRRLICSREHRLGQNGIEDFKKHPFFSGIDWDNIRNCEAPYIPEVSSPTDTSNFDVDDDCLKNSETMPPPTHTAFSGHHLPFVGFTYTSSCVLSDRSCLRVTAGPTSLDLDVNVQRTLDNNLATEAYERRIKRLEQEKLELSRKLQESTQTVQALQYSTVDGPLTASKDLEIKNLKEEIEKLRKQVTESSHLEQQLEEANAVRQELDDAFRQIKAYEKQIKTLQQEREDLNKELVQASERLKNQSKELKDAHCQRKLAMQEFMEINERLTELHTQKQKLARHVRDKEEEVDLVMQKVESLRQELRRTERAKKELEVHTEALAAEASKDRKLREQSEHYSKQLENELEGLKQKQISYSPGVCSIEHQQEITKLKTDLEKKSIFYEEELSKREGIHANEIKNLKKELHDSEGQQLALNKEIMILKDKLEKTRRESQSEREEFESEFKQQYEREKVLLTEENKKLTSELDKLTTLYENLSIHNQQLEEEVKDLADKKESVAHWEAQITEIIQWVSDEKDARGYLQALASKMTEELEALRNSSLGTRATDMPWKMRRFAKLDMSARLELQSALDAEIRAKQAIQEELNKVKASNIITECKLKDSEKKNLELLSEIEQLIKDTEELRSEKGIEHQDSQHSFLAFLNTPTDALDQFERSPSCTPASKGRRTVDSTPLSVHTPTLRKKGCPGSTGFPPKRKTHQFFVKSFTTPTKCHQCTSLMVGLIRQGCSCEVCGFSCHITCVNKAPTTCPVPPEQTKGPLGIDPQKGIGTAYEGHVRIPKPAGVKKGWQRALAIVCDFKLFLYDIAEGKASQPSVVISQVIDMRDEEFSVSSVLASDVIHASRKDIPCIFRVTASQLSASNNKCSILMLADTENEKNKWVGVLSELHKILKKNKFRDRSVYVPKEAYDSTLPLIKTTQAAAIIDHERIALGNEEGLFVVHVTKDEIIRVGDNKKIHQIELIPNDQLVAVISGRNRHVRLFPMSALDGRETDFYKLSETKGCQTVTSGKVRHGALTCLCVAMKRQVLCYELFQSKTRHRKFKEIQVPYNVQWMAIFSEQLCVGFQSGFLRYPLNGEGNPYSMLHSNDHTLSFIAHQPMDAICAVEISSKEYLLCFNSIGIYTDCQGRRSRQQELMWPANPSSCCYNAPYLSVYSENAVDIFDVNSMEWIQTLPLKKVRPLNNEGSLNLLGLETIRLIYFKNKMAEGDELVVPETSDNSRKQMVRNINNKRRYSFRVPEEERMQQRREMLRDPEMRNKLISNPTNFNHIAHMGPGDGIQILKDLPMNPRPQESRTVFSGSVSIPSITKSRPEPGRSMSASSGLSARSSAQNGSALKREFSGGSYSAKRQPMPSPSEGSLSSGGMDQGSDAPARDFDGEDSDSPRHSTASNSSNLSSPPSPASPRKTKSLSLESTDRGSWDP

PrKX(h) = target: T5, PrKX(h) (Homo sapiens, UniProt P51817)
T5 sequence (P51817 1-358): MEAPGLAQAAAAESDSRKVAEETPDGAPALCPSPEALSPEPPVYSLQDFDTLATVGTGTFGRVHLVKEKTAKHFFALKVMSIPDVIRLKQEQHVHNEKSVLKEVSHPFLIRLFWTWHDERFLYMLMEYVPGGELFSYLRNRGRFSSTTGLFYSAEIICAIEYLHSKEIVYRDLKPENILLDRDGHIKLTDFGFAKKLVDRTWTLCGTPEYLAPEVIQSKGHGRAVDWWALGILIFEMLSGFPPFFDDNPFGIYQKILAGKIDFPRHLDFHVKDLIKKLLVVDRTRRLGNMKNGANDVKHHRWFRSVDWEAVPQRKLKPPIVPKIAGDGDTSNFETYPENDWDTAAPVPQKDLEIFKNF

| Substance | % activity (TSSK2(h)) | % activity (MSK2(h)) | % activity (PKA(h)) | % activity (Rse(h)) | % activity (CaMKIV(h)) | % activity (PKCγ(h)) | % activity (JNK3(h)) | % activity (NEK2(h)) | % activity (ACK1(h)) | activity at 100 µM (MRCKα(h)) | activity at 100 µM (PrKX(h)) | % activity (MRCKα(h); 100 μM) | % activity (PrKX(h); 100 μM) |
| --- | --- | --- | --- | --- | --- | --- | --- | --- | --- | --- | --- | --- | --- |
| YARAAARQARAKALNRQLGVA (Mammalian) [MMI-0200] | 91% | 88% | 110% | 88% | 71% | 101% | 90% | 97% | 97% | – | – | – | – |
| H-YARAAARQARAKALARQLGVAA-OH [MMI-0100] | – | – | – | – | – | – | – | – | – | 98% | 84% | – | – |
| HRRIKAWLKKIKALARQLGVAA (Mammalian) [MMI-0500] | 92% | 14% | 118% | 63% | -1% | 6% | 171% | 0% | 64% | – | – | 5% | 57% |
